This passage reports specific caseinolytic activity results from publication PMC7471176.

For experiment [1], the target named is Casein (Hammerstein casein).
Experiment [2] concerns the target Casein (Hammerstein casein). This is another data set of the same source.

Consider “KP-43 Y195Q (Tyr195Gln) variant (enzyme)”, for which the specific caseinolytic activity at pH 10, against that of the Y195W variant in experiment [1] was 4.4 fold.
“KP-43 alkaline serine protease, wild type (enzyme)”: the specific caseinolytic activity at pH 7, against that at pH 10 (series pH 6 to 10) in experiment [2] came to 90%.
Turning to “KP-43 Y195I (Tyr195Ile) variant (enzyme)”, the specific caseinolytic activity at pH 6, against that of the Y195R variant in experiment [1] is 1.8 fold.
